Test results as given in patent publication US20140161803A1 (IFOM FONDAZIONE ISTITUO FIRC DI ONCOLOGIA MOLECOLARE, published 2014).
Like-named read-outs stand apart in the source and are kept apart here.

Key:
pro-uPA [1] = target: T1, pro-uPA (UniProt P00749 21-431, limits assumed, Eu3+-label in the cell binding competition assay); assay: soluble receptor titrated on immobilized pro-uPA; detection 13F6 + Eu3+ anti-mouse, time-resolved fluorescence
T1 construct: also called immobilized uPA
Experimental: The bound material was detected by measuring time-resolved fluorescence intensity. Specific binding was calculated by subtracting the non-specific binding measured in uncoated wells incubated with identical samples. The data shown are means±SD from a representative experiment. The binding curve, equilibrium dissociation constant (Kd, in nanomolar units) and maximum binding capacity (Bmax, in CPS units (counts per second)) were calculated by non-linear regression (four-parameter fit) using the Prism 5.0 software suite.

pro-uPA [2] = target: T1, pro-uPA; assay: as above; remark: listed apart in the source
Experimental: The bound material was detected by measuring time-resolved fluorescence intensity. Specific binding was calculated by subtracting the non-specific binding measured in uncoated wells incubated with identical samples. […] The binding curve and dissociation constant (Kd) were calculated by non-linear regression (four-parameter fit) using the Prism 5.0 software suite.
ON. […] The Eu³⁺-label was detected by measuring time-resolved fluorescence intensity using an Envision Xcite plate reader (Perkin Elmer Corp.) employing the DELFIA label protocol. To calculate the specific binding, non-specific binding measured in uncoated wells, incubated with identical samples, was subtracted from the total binding measured in coated wells.

wild-type human uPAR = wild-type human uPAR (human, UniProt Q03405 23-305, GPI-anchor on Gly283); assay: cell-based or functional assay
vitronectin = target: T2, vitronectin (UniProt P04004 20-478, limits assumed); assay: soluble receptor titrated on immobilized VN without pro-uPA; detection 13F6 + Eu3+ anti-mouse, time-resolved fluorescence
T2 construct: also called VN; immobilized VN
T2 sequence (P04004 20-478 limits assumed): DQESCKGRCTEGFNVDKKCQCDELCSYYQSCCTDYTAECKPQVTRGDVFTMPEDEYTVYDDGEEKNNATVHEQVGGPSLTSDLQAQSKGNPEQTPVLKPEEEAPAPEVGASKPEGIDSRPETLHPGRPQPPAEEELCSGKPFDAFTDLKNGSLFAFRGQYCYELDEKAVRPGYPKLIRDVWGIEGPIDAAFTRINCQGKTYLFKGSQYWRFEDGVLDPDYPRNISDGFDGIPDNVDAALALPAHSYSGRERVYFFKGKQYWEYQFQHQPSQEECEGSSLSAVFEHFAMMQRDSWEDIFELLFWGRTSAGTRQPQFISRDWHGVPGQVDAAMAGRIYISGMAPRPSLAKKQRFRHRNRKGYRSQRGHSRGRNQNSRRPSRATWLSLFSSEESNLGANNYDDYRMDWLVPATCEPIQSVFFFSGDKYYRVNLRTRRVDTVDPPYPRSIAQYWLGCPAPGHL
Experimental: The data are from a single experiment and presented as means±SD. The binding curve and Kd were calculated by non-linear regression. […] The data are from a single experiment and are represented as means±SD. The binding curve and Kd were calculated by non-linear regression.

Kd (pro-uPA [1]) | Kd (pro-uPA [2]) | % max inhibition (pro-uPA pre-treat.) (wild-type human uPAR) | % max inhibition (veh. pre-treat.) (wild-type human uPAR) | Kd (vitronectin) | Binder
11 nM | 1.1 nM |  |  |  | uPARmyc (receptor, monomeric control receptor; used as concentrated CHO conditioned medium without purification; also called soluble monomeric form of uPAR with a C-terminal myc-tag) LRCMQCKTNGDCRVEECALGQDLCRTTIVRLWEEGEELELVEKSCTHSEKTNRTLSYRTGLKITSLTEVVCGLDLCNQGNSGRAVTYSRSRYLECISCGSSDMSCERGRHQSLQCRSPEEQCLDVVTHWIQEGEEGRPKDDRHLRGCGYLPGCPGSNGFHNNDTFHFLKCCNTTKCNEGPILELENLPQNGRQCYSCKGNSTHGCSSEETFLIDCRGPMNQCLVATGTHEPKNQSYMVRGCATASMCQHAHLGDAFSMNHIDVSCCTKSGCNHPGGEQKLISEEDL
 |  | 82% | 38% |  | 13D11 (antibody, V domains shown) VH: ELMKPGASVKLSCKATGYTFTDYWIEWVKQRPGHGLEWIGEILPGRDSTDYNENFKGKATFTADTSSNTAYMQLSSLTTEDSAIYYCARDYYGHISNWYFDVWGTGTTVTVS VL: SLSASLGERVSLTCRASQDIGSSLNWLQQEPDGTIKRLIYATSSLDSGVPKRFSGSRSGSDYSLTISSLESVDFVVYYCLQYATSPYTFGGGTKLEIKR
 |  | < 20% | < 20% |  | AL6 (antibody, V domains shown) VH: ELMKPGASVKLSCKATGYSFTGYWIEWVKQRPGHGLEWIGEILPGSDRTNYNEKFKGKATFTADTSSNTAYMQLSSLTTEDSAIYYCARDDYDRGLYIMDYWGQGTSVTVS VL: SLSASLGERVSLTCRASQDIGTSLNWLQQEPDGTIRRLIYATSSLPPGVPKRFSGSRSGSDYSLTISSLESEDFVNYYCLQYATSPYTFGGGTKLEIKR
 |  | 79% | 67% |  | 19.10 (antibody, V domains shown) VH: ELVKPGASVKLSCKATGYTFTVYWMEWVRQRPGHGLEWIGEILPGSGRTNYNERFKGKATFTADTSSNTAYMQLSSLTTEDSAIYYCARDYSGDTSTGYFDVWGTGTTVTVS VL: SLSASLGERVSLTCRASQDIGSGLSWLQQEPDGTIKRLIYATSSLDSGVPKRFSGSRSGSDYSLTISSLESEDFVDYYCLQYATSPYTFGGGTKLEIKR
 |  | < 20% | 37% |  | BE18 (antibody, mouse IgG1, V domains shown) VH: ELVKPGASVKIICKASGYIFTDYNMDWVKQSHGKSLEWIGEINPNNGDTIYNQNFKGKATLTVDKSSSTAHMALRSLTSEDTAVYYCTRKGGLRAWFVYWGQGTLVTVS VL: MSASPGEKVTMTCRASSSVSSSYLHWYQQKSGASPKVWIYSTSNLASGVPARFSGSGSGTSYSLTISSVEAEDAATYYCQQYSGYPLTFGSGTKLEIQ
 | 28 nM |  |  | 0.62 nM | ^GFDuPARmyc (receptor, used as concentrated CHO conditioned medium; also called soluble GFDuPAR) SNELHQVPSNCDCLNGGTCVSNKYFSNIHWCNCPKKFGGQHCEIDKSKGGAGAAGGLRCMQCKTNGDCRVEECALGQDLCRTTIVRLWEEGEELELVEKSCTHSEKTNRTLSYRTGLKITSLTEVVCGLDLCNQGNSGRAVTYSRSRYLECISCGSSDMSCERGRHQSLQCRSPEEQCLDVVTHWIQEGEEGRPKDDRHLRGCGYLPGCPGSNGFHNNDTFHFLKCCNTTKCNEGPILELENLPQNGRQCYSCKGNSTHGCSSEETFLIDCRGPMNQCLVATGTHEPKNQSYMVRGCATASMCQHAHLGDAFSMNHIDVSCCTKSGCNHPGGEQKLISEEDL
 |  | < 20% | < 20% |  | 13F6 (antibody, mouse IgG1, V domains shown) VH: ELVKPGASVELSCKASGYTFTSYWMNWVKQRPGRGLEWIGRIAPNSGGTQYSGKFKTKATLTVDKSSSTAYMQLSSLTSEDSAVYYCARGDYFGHFDYWGQGTTLTVS VL: SLSASLGGKVTITCKASQDINNYIAWYQHKPGKGPRLLIHYTSILQPGIPSRFSGSGSGRDYSFSISNLEPEDIATYYCLQCDNLLTFGAGTKLELK
